pKd: −log10 of the molar value.

Holding throughout (settings): EMSA: Tris-HCl pH 8.0, MgCl2, NaCl, EDTA, 1 mM DTT, 0.01% NP-40, 50 ug/ml poly[d(I-C)], glycerol (masses given, total volume not stated), room temperature …
For orientation: A gel shift assay detects complexes by their altered migration in electrophoresis.

The target in data set [1] is T1, His-RegX3 (Msm) (Mycobacterium smegmatis MC2 155) (UniProt Q9F868).
T1 sequence: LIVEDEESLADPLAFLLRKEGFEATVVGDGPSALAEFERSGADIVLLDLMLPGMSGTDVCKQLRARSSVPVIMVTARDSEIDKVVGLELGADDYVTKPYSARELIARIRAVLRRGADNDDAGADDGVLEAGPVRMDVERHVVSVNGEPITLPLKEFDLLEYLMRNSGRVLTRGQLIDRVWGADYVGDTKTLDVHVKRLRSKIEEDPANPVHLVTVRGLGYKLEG
The data set is described as follows: EMSA.

Data set [2] deals with His-PrpR (Msm) (Mycobacterium smegmatis MC2 155). Kind of data set: BLI. On the technique in general: Biolayer interferometry detects binding as a change in optical thickness at a sensor tip.
For data set [3], the system named is His-RegX3 (Msm) (Mycobacterium smegmatis MC2 155). The data set is described as follows: BLI.

For “AGCCAGTGGCGATAAGACACACAGCCTAACCGCGATTCTTACACAGGATTTGCAAAGGCTGGCCCACCAGGACACAAAACTACGCATATACAGGCTCTTTACGTGCCATTAGGGGCCTTATCGCCACTGGCT (double strand) [PprpR-3]”, the binding result in data set [1] is “binds”. As to prpR promoter probe for BLI (Msm), the values for the negative logarithm of the Kd (pKd) in data set [2] and in data set [3] were 7.27 and 6.78, respectively.

For the origin of these results see publication PMC7884335.
